These results are taken from article PMC7325720 (The Journal of Infectious Diseases, 2019).

Series [1] has as its target T1, MBP-CD74 (CD74 ectodomain fused to maltose binding protein), biotinylated (UniProt P04233 73-296, biotin (EZ-Link Sulfo-NHS-LC-Biotinylation kit)).
T1 sequence (looked up): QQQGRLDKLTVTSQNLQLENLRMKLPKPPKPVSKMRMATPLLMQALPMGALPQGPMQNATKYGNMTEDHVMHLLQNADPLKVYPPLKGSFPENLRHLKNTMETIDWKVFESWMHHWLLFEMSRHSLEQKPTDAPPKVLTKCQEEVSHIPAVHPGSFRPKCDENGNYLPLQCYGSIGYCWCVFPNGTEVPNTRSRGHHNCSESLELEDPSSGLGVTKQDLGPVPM
Put plainly: BLI. (Biolayer interferometry detects binding as a change in optical thickness at a sensor tip.)

The series “crystal structure” deals with the molecule itself. Put plainly: crystal structure.

B1: Entamoeba histolytica macrophage migration inhibitory factor (Eh-MIF) (natural protein)
chain: MPHALITLSADITEEIKKEIAHESMKILSEVIGKPISYCATQVVTSVGGFGGKIVKSAFIDIKSISGLKGKQEGLSDRYCKLLEQKAGIEGGNIYLNFTEMTGNNWGYDHSTF
With B1, in series [1], the Kd (usually the concentration at which binding is half-saturated) was determined as 11.2 nM. The stoichiometry N (usually the number of molecules, sites or subunits per partner or assembly) in the series “crystal structure” was found to be 3.

B2: human macrophage migration inhibitory factor (human MIF) (natural protein, UniProt P14174 1-115, looked up)
chain: MPMFIVNTNVPRASVPDGFLSELTQQLAQATGKPPQYIAVHVVPDQLMAFGGSSEPCALCSLHSIGKIGGAQNRSYSKLLCGLLAERLRISPDRVYINYYDMNAANVGWNNSTFA
With B2, in series [1], the Kd was found to be 18.2 nM.
